The labels stand for the following.
B1: Plaa (protein, UniProt P27612 1-794, looked up)
Phospholipase A-2-activating …: MASGASRYRLSCSLPGHELDVRGLVCCLYPPGAFVSVSRDRTTRLWAPDSPNRGFTEMHCMSGHSNFVSCVCIIPSSDIYPHGLIATGGNDHNICIFSLDSPMPLYILKGHKDTVCSLSSGKFGTLLSGSWDTTAKVWLNDKCMMTLQGHTAAVWAVKILPEQGLMLTGSADKTIKLWKAGRCERTFLGHEDCVRGLAILSETEFLSCANDASIRRWQITGECLEVYFGHTNYIYSISVFPNSKDFVTTAEDRSLRIWKHGECAQTIRLPAQSIWCCCVLENGDIVVGASDGIIRVFTESEERTASAEEIKAFERELSQATIDSKTGDLGDINAEQLPGREHLSEPGTREGQTRLIRDGERVEAYQWSVSDGRWIKIGDVVGSSGANQQTSGKVLYEGKEFDYVFSIDVNEGGPSYKLPYNVSDDPWLVAYNFLQKNDLNPMFLDQVAKFIIDNTKGQTLGLGNTSFSDPFTGGGRYVPGTSGPSNTVQTADPFTGAGRYMPGSAGMDTTMTGVDPFTGNSAYRSAASKTVNIYFPKKEALTFDQANPTQILGKLKELNGTAPEEKKLTEDDLVLLEKILSLICNNSSEKPTAQQLQILWKAINWPEDIVFPALDILRLSIKHPNVNENFCNEKGDQFSSHLINLLNPKGKPANQLLALRTFCNCFVSQAGQKLMMSQRESLMSHAIELKSGSNKNIHIALATLTLNYSVCFHKDHNIEGKAQCLSVISTILEVVQDLEATFRLLVALGTLISDDSNAIQLAKSLGVDSQIKKYVSVSEPAKVSECCRLVLHLL
B2: Ssbp1 (protein, UniProt Q9CYR0 17-152, looked up)
Single-stranded DNA-binding …: ESEVASSLVLERSLNRVQLLGRVGQDPVMRQVEGKNPVTIFSLATNEMWRSGDSEVYQMGDVSQKTTWHRISVFRPGLRDVAYQYVKKGARIFVEGKVDYGEYMDKNNVRRQATTIIAGKKLVVHSVSGCSLEGLA
B3: Fth1 (protein, UniProt P09528 1-182, looked up)
Ferritin heavy chain: MTTASPSQVRQNYHQDAEAAINRQINLELYASYVYLSMSCYFDRDDVALKNFAKYFLHQSHEEREHAEKLMKLQNQRGGRIFLQDIKKPDRDDWESGLNAMECALHLEKSVNQSLLELHKLATDKNDPHLCDFIETYYLSEQVKSIKELGDHVTNLRKMGAPEAGMAEYLFDKHTLGHGDES
B4: Qars (protein, UniProt Q8BML9 2-775, looked up)
Glutamine--tRNA ligase: ATPDSLALFTGLGLSENKARETLKNEALSTQLREAATQAHQILGSTIDKATGVLLYDLVSRLRDTRRRSFLVSYIANKKIHTGLQLSAALEYVRSHPQDPIDTKDFEQECGVGVVVTPEQIEEAVESTINKHQLQLLAERYRFNMGLLMGEARAALRWADGKMIKNEVDMQVLHLLGPKMEADLVKKPKVAKARLEETDRKTAKDVVEKGEVAGQTLSLMEQLRGEALKFHKPGENYKTPGYVITPYTMDLLKQHLEITGGQVRTRFPPEPNGILHIGHAKAINFNFGYAKANNGICFLRFDDTNPEKEEAKFFTAIYDMVTWLGYTPYKVTYASDYFDQLYAWAVELIHGGLAYVCHQRVEELKGHNPLPSPWRDRPKEESLLLFEAMRKGKFAEGEATLRMKLVMEDGKMDPVAYRVKYTPHHRTGDKWCIYPTYDYTHCLCDSIEHITHSLCTKEFQARRSSYFWLCNALKVYCPVQWEYGRLNLHYAVVSKRKILQLVAAGAVRDWDDPRLFTLTALRRRGFPPEAINNFCARVGVTVAQTTMEPHLLEACVRDVLNDAAPRAMAVLEPLQVVITNFPAPKPLDIRVPNFPADETKGFHQVPFASTVFIERSDFKEESEPGYKRLASGQPVGLRHTGYVIELQNIVRGSSGCVERLEVTCRRADAGEKPKAFIHWVSQPLVCEIRLYECLFQHKNPEDPVEVPGGFLSDLNPASLQVVEGALVDCSVALAKPFDKFQFERLGYFSVDPDSHQGQIVFNRTVTLKEDPGKI

Here are results for four molecules from US20260266848A1, “COMPOSITIONS AND METHODS FOR DIAGNOSING AND TREATING DYSTONIA” (Duke University, priority 2023, published 2026).

The first test deals with DYT-TOR1A MEF EVs. The test can be described thus: Quantitative LC-MS/MS proteomics of EVs from drug-treated DYT-TOR1A MEF cultures (ritonavir, salubrinal). The class given is cell-based, mouse. The arrangement: key to RTV Corrective Direction / RTV Corrective Direction, Grwd1 / RTV Corrective Direction, Srrm2 / RTV Corrective Direction, Rbm17 / RTV Corrective Direction, Dcaf8 / RTV Corrective Direction, Edil3 / RTV Corrective Direction, Timp3 / RTV Corrective Direction, Heatr3 / RTV Corrective Direction, Brd4 / RTV Corrective Direction, P3h4 / RTV Corrective Direction, Pacsin3 / RTV Corrective Direction, Naa50 / RTV Corrective Direction, Lpar6 / RTV Corrective Direction, Ndrg1 / RTV Corrective Direction, Kntc1 / RTV Corrective Direction, Cdk11b / RTV Corrective Direction, Sumo1 / RTV Corrective Direction, Lsm4 / RTV Corrective Direction, Hmga2 / RTV Corrective Direction, Cstf1 / RTV Corrective Direction, Tes / RTV Corrective Direction, Sbno1 / RTV Corrective Direction, Unc119b / RTV Corrective Direction, Cfdp1 / RTV Corrective Direction, Sec61b: YES = protein abundance effect opposite to DYT/WT. The following applies: EV protein abundance, DYT + RTV (ritonavir) vs DYT, direction compared with DYT/WT.
With B1, the “RTV Corrective Direction” value is on record as “YES”.
Still for that read-out and setting: with B2 the entry was “YES”; with B3, “YES”.
On to B4, for which the “RTV Corrective Direction” value is “YES”.

The test is the same for the next values; noted with them: EV protein abundance, ritonavir (RTV)-treated DYT vs DYT.
For B1, the “DYT + RTV/DYT Cohen's d” value is recorded as 8.69.
As for B2, the “DYT + RTV/DYT Cohen's d” value was found to be 3.30.
On the same count and under the same terms, as for B3, the figure is 0.31; as for B4, 7.21.

The test system of a further test is WT MEF EVs. The experiment in a line: Quantitative LC-MS/MS proteomics of EVs from ISRIB-treated WT MEF cultures. The arrangement: key to ISRIB and DYT Parallel Direction / ISRIB and DYT Parallel Direction, Ctdsp1 / ISRIB and DYT Parallel Direction, Pcdh19 / ISRIB and DYT Parallel Direction, Tspan7 / ISRIB and DYT Parallel Direction, Myo1e / ISRIB and DYT Parallel Direction, Plpp3 / ISRIB and DYT Parallel Direction, Sh3bp4 / ISRIB and DYT Parallel Direction, Dnajc7 / ISRIB and DYT Parallel Direction, Drg1 / ISRIB and DYT Parallel Direction, Maea: YES = protein abundance effect similar to DYT/WT. The class given is cell-based, mouse. The following applies: EV protein abundance, ISRIB-treated WT vs WT.
For B1, the “WT + ISRIB/WT Cohen's d” value is listed as −2.39.
On to B2, for which the “WT + ISRIB/WT Cohen's d” value was −1.49.
Same read-out and setting: with B3 the figure was −3.46; with B4, −2.14.

The test is the same for the next values; noted with them: EV protein abundance, WT + ISRIB vs WT, direction compared with DYT/WT.
With B1, the “ISRIB and DYT Parallel Direction” value was “YES”.
As for B2, the “ISRIB and DYT Parallel Direction” value is “YES”.
Still for that read-out and setting: with B3 the entry was “YES”; with B4, “YES”.
